What was measured:
UBCH5B [1] = molecular target: T1, UBCH5B (UniProt P62837 1-147); assay: ITC; Microcal PEAQ ITC, 25 °C; 75-200 uM Arkadia polypeptide in the cell, 0.75-2 mM UBCH5B from the syringe in 2 uL injections; single site-binding model; conditions: both partners purified
T1 construct: UBCH5B, E2 ubiquitin-conjugating enzyme, wild type; 15N-labelled in the NMR titrations; also called E2 enzyme UBCH5B; wt UBCH5B

UBCH5B [2] = molecular target: T1, UBCH5B; assay: as above; conditions: both partners purified; remark: listed apart in the source

| Kd (UBCH5B [1]) | Kd (UBCH5B [2]) | Binder |
| --- | --- | --- |
| 2.7 µM | – | Arkadia 119 aa polypeptide (domain or fragment, Cloned into pGEX-4T-1; source: E. coli, purified (GST-trap, thrombin cleavage, Superdex 75 SEC); not shown: GST, N-terminal, cleaved) FRGNFEELIHLEERLGNVNRGASQGTIERCTYPHKYKKVTTDWFSQRKLHCKQDGEEGTEEDTEEKCTICLSILEEGEDVRRLPCMHLFHQVCVDQWLITNKKCPICRVDIEAQLPSES |
| 32 µM | – | Arkadia RING 68 aa (domain or fragment, Cloned into pGEX-4T-1; also called Ark RING 68aa; Ark 68 aa; source: E. coli, purified (GST-trap, thrombin cleavage, Superdex 75 SEC); not shown: GST, N-terminal, cleaved) KQDGEEGTEEDTEEKCTICLSILEEGEDVRRLPCMHLFHQVCVDQWLITNKKCPICRVDIEAQLPSES |
| – | 23 µM | Arkadia 90 aa polypeptide (domain or fragment, Arkadia (RNF111), human, isoform 1, residues 905-994: NLS, the segment unique to isoform 1 and the RING-H2 domain; Cloned into pGEX-4T-1; also called Ark 90 aa; source: E. coli, purified (GST-trap, thrombin cleavage, Superdex 75 SEC); not shown: GST, N-terminal, cleaved) CTYPHKYKKVTTDWFSQRKLHCKQDGEEGTEEDTEEKCTICLSILEEGEDVRRLPCMHLFHQVCVDQWLITNKKCPICRVDIEAQLPSES |

Reference: PMC9501438 (International Journal of Molecular Sciences, 2022)
